Data from the nanobody polyreactivity screen of Harvey et al. (2022).

Assay: yeast display, Sf9 membrane polyspecificity reagent, FACS + sequencing; frameworks hold sequencing errors
How it was run: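 Nanobodies came from a synthetic yeast display library in Saccharomyces cerevisiae BJ5465, induced with galactose for 36–48 hours and stained for 1 hour at 4 °C with 10% biotinylated, detergent-solubilized Sf9 membrane reagent. Cells were enriched on streptavidin microbeads and then FACS-sorted, with low and high (top ~1%) gates set on anti-HA fluorescence for expression and streptavidin fluorescence for reagent binding. Each polyreactivity label reflects the gate a clone came from. Genes were amplified by colony PCR, sequenced by MiSeq 2 × 250 and filtered by CDR length.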

Row | Sequence | polyreactivity (PSR sort gate)
1 | QVQLVESGGGLVQAGGSLRLSCAASGSIFYVYAMGWYRQAPGKERELVATISSSAGSTYYADSVKGRFTISRDNAKNTVYLQMNSLKPEDTAVYYCAAKVRYSLRKYYYWGQGTQVTVSS | high polyreactivity
2 | QVQLVESGGGLVQAGGSLRLSCAASGSIFYWNAMGWYRQAPGKERELVAAISSSGSSTYYADSVKGRFTISRDNAKNTVYLQMNSLKPEDTAVYYCAADNYNSGGTRHMYYWGQGTQVTVSS | high polyreactivity
3 | QVQLVESGGGLVQAGGSLRLSCAASGSIFYWNAMGWYRQAPGKERELVATITITTSTNYADSVKGRFTISRDNAKNTVYLQMNSLKPEDTAVYYCNAGAPYRYLDEYNYWGQGTQVTVSS | low polyreactivity
4 | QVQLVESGGGLVQAGGSLRLSCAASGSIFYWNTMGWYRQAPGKERELVAAIRRGGNTYYADSVKGRFTISRDNAKNTVYLQMNCLKPEDTAVYYCNRDGTYVYHGGEYWGQGTQVTVSS | low polyreactivity
5 | QVQLVESGGGLVQAGGSLRLSCAASGSIFYWYAMGWYRQAPGKEREFIADIDWSGGSTYYADSVKGRFTISRDNAKNTVYLQMNSLKPEDTAVYYCAAEARIDIGLYYLDSYYWGQGTQVTVSS | high polyreactivity
6 | QVQLVESGGGLVQAGGSLRLSCAASGSIFYWYAMGWYRQAPGKERELVAAISSGGSTNYADSVKGRFTISRDNAKNTVYLQMNSLKPEDTAVYYCNADVPVRYGPIYFRRLDYWGQGTQVTVSS | low polyreactivity
7 | QVQLVESGGGLVQAGGSLRLSCAASGSIFYWYAMGWYRQAPGKERELVAAITSSSGRTRYADSVKGRFTISRDNAKNTVYLQMNSLKPEDTAVYYCAAGRWGSYYTPRPYGYWGQGTQVTVSS | high polyreactivity
8 | QVQLVESGGGLVQAGGSLRLSCAASGSIFYWYAMGWYRQEPGKERELVAAIDISDDTYYADSVKGRYTISRDNAKNTVYLLMNRLKPEDTAVYYCATDEWYLFEYPFYYWGQGSQVTVSS | high polyreactivity
9 | QVQLVESGGGLVQAGGSLRLSCAASGSIFYWYTMGWYRQAPGKERELVAAISSIDGNTYYADSVKGRFTISRDNAKNTVYLQMNSLKPEDTAVYYCAAAYYNTDYYYWGQGTQVTVSS | low polyreactivity
10 | QVQLVESGGGLVQAGGSLRLSCAASGSIFYYAMGWYRQAPGKERELVADISTGGSTHYADSVKGRFTISRDNAKNTVYLQMYSLKPEDTAVYYCAKEAWRYRLNFRYNYWVQGTQVTVSS | low polyreactivity
11 | QVQLVESGGGLVQAGGSLRLSCAASGSIFYYNALGWYRHAPGKERELVASISNGGSTDYADSVKGRFTISRDNAKNTVYLQMNSVKPEDTAVYYCNAKQSYRSDYDYWGQGTQVTVSS | low polyreactivity
12 | QVQLVESGGGLVQAGGSLRLSCAASGSIFYYNAMGWYIQAPGKERELVAAIRSTGSTNYADSVKGRFTISRDNAKNTVYLQMNSLKPEDTAVYYCNADYIFWLTLFDYWGQGTQVTVSS | low polyreactivity
13 | QVQLVESGGGLVQAGGSLRLSCAASGSIFYYNAMGWYRQAPGKEREFVAAIRTRGDSTYYADSVKGRFTISRDNAKNTVYLQMNSLKPEDTAVYYCAARHYGGDGNKYYYWGHGTQVTVSS | high polyreactivity
14 | QVQLVESGGGLVQAGGSLRLSCAASGSIFYYNAMGWYRQAPGKEREFVAAITISGGDTYYADSVKGRFTISRDNAKNTVYLQMNSLKPEDTAVYYCAAESYRGYDYWGQGTQVTVSS | high polyreactivity
15 | QVQLVESGGGLVQAGGSLRLSCAASGSIFYYNAMGWYRQAPGKERELVAAINSNGGSTYYADSVKGRFTISRDNAKNSVYFQMNSLKPEDTAVYYCNARYPGRTQGRYYYWGHGTQVTVSS | low polyreactivity
16 | QVQLVESGGGLVQAGGSLRLSCAASGSIFYYNAMGWYRQAPGKERELVAAISSSGGSTYYADSVKGRFTISRDNAKNTVYLQMNSLKPEDTAVYYCAAKLRHWAHHTKYDYWGQGTQVTVSS | low polyreactivity

Row | Sequence | polyreactivity (PSR sort gate)
17 | QVQLVESGGGLVQAGGSLRLSCAASGSIFYYNAMGWYRQAPGKERELVAAISWGDGITYYADSVKGRFTISRDNAKNTVYLQMNSLKPEDTAVYYCAVDYYYLPYEYWGQGTQVTVSS | high polyreactivity
18 | QVQLVESGGGLVQAGGSLRLSCAASGSIFYYNAMGWYRQAPGKERELVAGISYTGGSTYYADSVKGRFTISRDNAKNTVYLQMNSLKPEDTAVYYCAAVRQYYFRYKINTSGYQYYYWGQGTQVTVSS | high polyreactivity
19 | QVQLVESGGGLVQAGGSLRLSCAASGSIFYYNPMGWYRQAPWKERELVAAITGSGGSTYYADSVKGRFTISRDNAKNTVYLQMNSLKPEDTAVYYCAADYSLYGWWFRNDYWGQGTQVTVSS | low polyreactivity
20 | QVQLVESGGGLVQAGGSLRLSCAASGSIFYYNTMGWYRQAPGKEREFVATITFSGSSTYYADSVKGRFTFSRDNAKNTVYLQMNSLKPEDTAVYYCAVTLEDYTYGYWGQGTQVTVSS | low polyreactivity
21 | QVQLVESGGGLVQAGGSLRLSCAASGSIFYYNTMGWYRQAPGKERELVAAITSTGRTNYADSVKGRFTISRDNAKNTVYLQINSLKPVDTAVYYCAKRRFGDGDYWGQGTQVTVSS | low polyreactivity
22 | QVQLVESGGGLVQAGGSLRLSCAASGSIFYYNVMGWYRQAPGKERELVAAISQSGVRTYYADSVKGRFTISRDNAKNTVYLQMNSLKPEDTAVYYCAAKARRLYASSYDYWGQGTQVTVSS | high polyreactivity
23 | QVQLVESGGGLVQAGGSLRLSCAASGSIFYYNYMGWYRQAPGKERELVATITNGGGTNYADSVKGRFTISRDNAKNTVYLQMNSLKPEDTAVYYCARDVWSPDYLYDYWGQGTQVTVSS | low polyreactivity
24 | QVQLVESGGGLVQAGGSLRLSCAASGSIFYYYAMGWYRQAPGKERELVAAIDSGGSTYYADSVKGRFTISRDNAKNTVYLQMNSLKPEDTAVYYCAADTYWFVYYGYDYWGLGTQVTVSS | low polyreactivity
25 | QVQLVESGGGLVQAGGSLRLSCAASGSIFYYYAMGWYRQAPGKERELVAAISTGGGSTYYADSVKGRFTISRDNAKNTVYLQINSLKPEDTAVYYCAAPWGYYSSFTDDYWGHGTQVTVSS | low polyreactivity
26 | QVQLVESGGGLVQAGGSLRLSCAASGSIFYYYAMGWYRQAPGKERELVAAITSGGRTKYADSVKGRFTISRDNAKNTVYLQMNSLKPEDTAVYYCATRAIWAYSTGYDYWGQGTQVTVSS | high polyreactivity
27 | QVQLVESGGGLVQAGGSLRLSCAASGSIFYYYAMGWYRQAPGKERELVAAITSGGSTYYADSVKGRFTISRDNAKNTVYLQMNSLKPEDTAVYYCAAVFYAAYLRYVWYSYDYWGQGTQVTVSS | low polyreactivity
28 | QVQLVESGGGLVQAGGSLRLSCAASGSIFYYYAMGWYRQAPGKERELVAAITSRAGDTYYADSVKGRFTISRDNAKNTVYLQMNSLKPEDTAVYYCAADFPAYYDYYYWGQGTQVTVSS | low polyreactivity
29 | QVQLVESGGGLVQAGGSLRLSCAASGSIFYYYAMGWYRQAPGKERELVASITSGGSTYYADSVKGRFTISRDNAKNTVYLQMNILKPEDTAVYYCAADVYRTWYWWFDYWGQGTQVTVSS | high polyreactivity
30 | QVQLVESGGGLVQAGGSLRLSCAASGSIFYYYSMGWYRQAPGKERELVAAMSTGGGSTYYADSVKGRFTISRDNAKNTVYLQMNSLKPEDTSVYYCAAPWGYYSSFTDDYWGQGTQVTVSS | low polyreactivity
31 | QVQLVESGGGLVQAGGSLRLSCAASGSIHFEYMGWYRQAPGKERELVAAITIRDGGTYYADSVKGRFTISRDNAKNTVYLQMNSLKPEDTAVYYCNADFSGGWRYDYWGQGTQVTVSS | low polyreactivity
32 | QVQLVESGGGLVQAGGSLRLSCAASGSIIAAYAMGWYRQAPGKERELVAAIRWNGGSTYYADSVKGRFTISRDNAKNTVYLQMISLKPEDTAVFYCAADYIYYPVYEFGYWGQGTQVTVSS | low polyreactivity
